Results: the supplement of paper PMC10126150
± gives the standard deviation of the averaged measurements.

Test system: ATP
Experiment: switch fluorescence ratio, 500 uM ATP over buffer (Cy3 cluster intensity, sum of 5 cycles each) (fold (ratio)); higher = stronger signal-on switching upon ATP binding; sequences stand for … in TCGTCGGCAGCGTCAGATGTGTATAAGAGACAGTTTTTTTTTTTTTTTTTTTTTTTTT…TC
Details: aptamer strand: ATP DNA aptamer (quencher-CACCTGGGGGAGTATTGCGGAGGAAGG + anchor), 100 nM annealed; ATP concentration: 500 uM
Summary of the method: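 Cy3-labelled switching-strand clusters on a modified Illumina MiSeq flow-cell were annealed to 100 nM quencher-labelled ATP aptamer and imaged first in selection buffer, then after 15 min with 500 uM ATP at 22 °C. NaOH stripping and re-annealing separated each of five buffer/ATP cycles, and clusters outside 100-1000 RFU were excluded. The fluorescence ratio sums target-cycle Cy3 intensity over buffer-cycle Cy3 intensity per cluster and averages it per switch-domain sequence.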
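Further: ATP exposure 15 min at 22 °C before imaging.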

Row | Sequence | switch fluorescence ratio
1 | AGGGTGAGGC | 0.992 ± 0.06
2 | AGGGTGAGGG | 0.984 ± 0.042
3 | AGGGTGGTAG | 0.978 ± 0.035
4 | AGGGTGTGAT | 1.04 ± 0.026
5 | AGGGTGTTAT | 0.993 ± 0.022
6 | AGGGTGTTTG | 1.01 ± 0.019
7 | AGGGTTAAAT | 1 ± 0.012
8 | AGGGTTAAGT | 1.002 ± 0.0061
9 | AGGGTTACGG | 1.02 ± 0.025
10 | AGGGTTATGT | 0.971 ± 0.03
11 | AGGGTTATTA | 0.9786 ± 0.0025
12 | AGGGTTATTT | 0.998 ± 0.03
13 | AGGGTTGGGC | 1.01 ± 0.021
14 | AGGGTTGTAT | 1.001 ± 0.0037
15 | AGGGTTGTTG | 0.999 ± 0.015
16 | AGGGTTTCTC | 0.989 ± 0.0011
17 | AGGGTTTGAG | 1.11 ± 0.2
18 | AGGGTTTGCT | 0.96929 ± 0.00044
19 | AGGGTTTTAG | 0.994 ± 0.019
20 | AGGTAAAAAG | 1.02 ± 0.017
21 | AGGTAAGGCT | 0.976 ± 0.025
22 | AGGTAATACA | 1.08 ± 0.029
23 | AGGTAATGCA | 1.012 ± 0.0037

Row | Sequence | switch fluorescence ratio
24 | AGGTACGACG | 0.99 ± 0.013
25 | AGGTACGGAG | 1.01 ± 0.019
26 | AGGTACGTTT | 1.03 ± 0.02
27 | AGGTACTGTA | 1.01 ± 0.011
28 | AGGTAGAATG | 0.998 ± 0.0045
29 | AGGTAGATGG | 0.995 ± 0.0096
30 | AGGTAGCTGT | 1.04 ± 0.053
31 | AGGTAGGCAT | 1 ± 0.041
32 | AGGTAGGGTG | 1.04 ± 0.055
33 | AGGTATTCAG | 1.01 ± 0.033
34 | AGGTATTGG | 1.008 ± 0.0055
35 | AGGTATTGGG | 1.02 ± 0.043
36 | AGGTATTTGA | 0.984 ± 0.054
37 | AGGTCAGCTT | 1.01 ± 0.04
38 | AGGTCAGTAG | 1 ± 0.024
39 | AGGTCATTGA | 1 ± 0.021
40 | AGGTCCGGTG | 1.031 ± 0.0096
41 | AGGTCGATCC | 0.993 ± 0.05
42 | AGGTCGGATG | 1.004 ± 0.0056
43 | AGGTCGGCA | 0.9919 ± 0.0092
44 | AGGTCGGGGG | 0.988 ± 0.029
45 | AGGTGAAAAG | 1.01 ± 0.02
46 | AGGTGAAATC | 1.26 ± 0.34

Row | Sequence | switch fluorescence ratio
47 | AGGTGAAATT | 1.11 ± 0.1
48 | AGGTGATGGG | 1.04 ± 0.023
49 | AGGTGATGTG | 0.998 ± 0.028
50 | AGGTGCATTT | 1.08 ± 0.02
51 | AGGTGCTTAC | 1.04 ± 0.037
52 | AGGTGGGAGT | 1.02 ± 0.021
53 | AGGTGGTACA | 0.993 ± 0.03
54 | AGGTGGTAGT | 1 ± 0.012
55 | AGGTGTAAAT | 1.003 ± 0.0016
56 | AGGTGTATTG | 1.03 ± 0.017
57 | AGGTGTTATC | 0.9933 ± 0.0015
58 | AGGTGTTCCG | 1.04 ± 0.084
59 | AGGTGTTTAA | 1.03 ± 0.061
60 | AGGTGTTTGC | 1.05 ± 0.028
61 | AGGTTAACTA | 1.02 ± 0.024
62 | AGGTTAAGTA | 1 ± 0.027
63 | AGGTTACAAT | 1.04 ± 0.043
64 | AGGTTACATC | 1.018 ± 0.0016
65 | AGGTTAGACG | 1.01 ± 0.04
66 | AGGTTAGATG | 0.991 ± 0.013
67 | AGGTTATACG | 1.01 ± 0.022
68 | AGGTTCTATT | 0.9864 ± 0.0089
69 | AGGTTGAAAG | 0.974 ± 0.035

Row | Sequence | switch fluorescence ratio
70 | AGGTTGGGC | 1.04 ± 0.034
71 | AGGTTGGGGT | 1.01 ± 0.036
72 | AGGTTGGTTA | 0.984 ± 0.029
73 | AGGTTGTATG | 0.97 ± 0.039
74 | AGGTTGTGGG | 1.02 ± 0.022
75 | AGGTTGTTTT | 0.977 ± 0.028
76 | AGGTTTCTCT | 0.966 ± 0.031
77 | AGGTTTGCTC | 1.01 ± 0.011
78 | AGGTTTGGGA | 0.987 ± 0.032
79 | AGGTTTGGGT | 0.998 ± 0.026
80 | AGGTTTGTA | 1.04 ± 0.016
81 | AGGTTTGTGG | 0.976 ± 0.023
82 | AGGTTTGTTA | 0.987 ± 0.015
83 | AGGTTTTATT | 0.948 ± 0.023
84 | AGTAAAAAAT | 0.9891 ± 0.0066
85 | AGTAAAATT | 0.9865 ± 0.0036
86 | AGTAAAGTGG | 0.971 ± 0.025
87 | AGTAAAGTGT | 0.99703 ± 0.00028
88 | AGTAAATCTC | 1.04 ± 0.017
89 | AGTAACCAAA | 1.04 ± 0.097
90 | AGTAACGCGG | 0.979 ± 0.014
91 | AGTAAGAGAA | 0.995 ± 0.023
92 | AGTAAGATTG | 0.9889 ± 0.0026

Row | Sequence | switch fluorescence ratio
93 | AGTAAGATTT | 1.16 ± 0.15
94 | AGTAAGCCAC | 1.05 ± 0.082
95 | AGTAAGGATC | 1 ± 0.031
96 | AGTAAGGCGC | 1.02 ± 0.045
97 | AGTAAGGGCA | 1.01 ± 0.016
98 | AGTAAGTATG | 1.04 ± 0.054
99 | AGTAAGTCGG | 0.975 ± 0.022
100 | AGTAAGTCTG | 0.969 ± 0.02
101 | AGTAATGAGG | 0.985 ± 0.035
102 | AGTAATTAGG | 1.027 ± 0.0043
103 | AGTAATTGAC | 1.1 ± 0.013
104 | AGTAATTGCG | 0.982 ± 0.034
105 | AGTACGGGGA | 1.04 ± 0.053
106 | AGTACTGCGA | 1.05 ± 0.035
107 | AGTAGAGGAC | 1.01 ± 0.045
108 | AGTAGCATTC | 1.724 ± 0.013
109 | AGTAGCGGTC | 1.02 ± 0.057
110 | AGTAGCTTTT | 0.997 ± 0.016
111 | AGTAGGAGT | 0.998 ± 0.033
112 | AGTAGGGAGT | 0.9784 ± 0.0094
113 | AGTAGGGGGT | 1.01 ± 0.022
114 | AGTAGGGTCC | 1.03 ± 0.029
115 | AGTAGGGTGC | 1.07 ± 0.12

Row | Sequence | switch fluorescence ratio
116 | AGTAGGGTTT | 0.9932 ± 0.0097
117 | AGTAGGTGGC | 1 ± 0.052
118 | AGTAGTGTTG | 1.01 ± 0.068
119 | AGTAGTTTTG | 0.98 ± 0.014
120 | AGTATCAGAA | 1 ± 0.042
121 | AGTATCCCTA | 0.998 ± 0.021
122 | AGTATGAGTA | 1.015 ± 0.0088
123 | AGTATGGTGC | 0.991 ± 0.029
124 | AGTATTACGG | 0.9989 ± 0.0088
125 | AGTATTGGGC | 1.008 ± 0.01
126 | AGTATTTATT | 1 ± 0.03
127 | AGTCAACCGG | 1.03 ± 0.034
128 | AGTCACTTAG | 1.05 ± 0.015
129 | AGTCAGAGTA | 0.9821 ± 0.004
130 | AGTCATTTTA | 0.999 ± 0.028
131 | AGTCCGGACC | 0.967 ± 0.026
132 | AGTCCGGGGT | 1.04 ± 0.025
133 | AGTCCTAGGT | 1.03 ± 0.022
134 | AGTCCTTATT | 0.977 ± 0.021
135 | AGTCGGGATG | 0.963 ± 0.035
136 | AGTCGGGTTC | 0.973 ± 0.032
137 | AGTCGTCACG | 0.9926 ± 0.0099
138 | AGTCTAAGGG | 0.993 ± 0.013

Row | Sequence | switch fluorescence ratio
139 | AGTCTCTGGG | 0.974 ± 0.024
140 | AGTCTGAAGA | 0.987 ± 0.036
141 | AGTCTGCCGG | 1.01 ± 0.028
142 | AGTCTGCGCG | 1.002 ± 0.007
143 | AGTCTGTTTC | 0.999 ± 0.024
144 | AGTCTTAGCA | 0.991 ± 0.049
145 | AGTGAATGGA | 0.991 ± 0.024
146 | AGTGAATTTT | 0.988 ± 0.064
147 | AGTGACACCT | 1.15 ± 0.054
148 | AGTGACCCCT | 1.06 ± 0.035
149 | AGTGACGCTC | 1.08 ± 0.024
150 | AGTGACGTAC | 1.77 ± 0.075
151 | AGTGAGCTGG | 0.9733 ± 0.0031
152 | AGTGATAAGT | 0.969 ± 0.015
153 | AGTGATGTTC | 0.976 ± 0.016
154 | AGTGCAGGTG | 2.438 ± 0.015
155 | AGTGCGGGCG | 0.9895 ± 0.003
156 | AGTGCGGGGC | 1.07 ± 0.013
157 | AGTGCGTTTA | 1 ± 0.014
